From publication PMC5382266 (Nature Communications, 2017)
Where a chain is given by its changes, count along the chain named.

T1: TSLPR^N47Q (human, UniProt Q9HC73-1 23-221, N47Q)
T1 construct: signal peptide in the construct; extracellular fragment of human TSLPR, NP_071431.2, residues 1-221, N-glycosylation mutant N47Q; also called EndoH-treated TSLPR^N47Q
T1 sequence (looked up): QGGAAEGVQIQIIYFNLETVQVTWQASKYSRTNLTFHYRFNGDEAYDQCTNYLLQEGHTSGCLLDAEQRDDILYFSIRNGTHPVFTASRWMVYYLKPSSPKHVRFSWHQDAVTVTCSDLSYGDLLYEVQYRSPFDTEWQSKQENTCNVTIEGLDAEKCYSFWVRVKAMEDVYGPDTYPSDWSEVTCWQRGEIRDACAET

T2: full-length HA-tagged human IL-7Rα (human, UniProt P16871-1 21-459)
T2 sequence (looked up): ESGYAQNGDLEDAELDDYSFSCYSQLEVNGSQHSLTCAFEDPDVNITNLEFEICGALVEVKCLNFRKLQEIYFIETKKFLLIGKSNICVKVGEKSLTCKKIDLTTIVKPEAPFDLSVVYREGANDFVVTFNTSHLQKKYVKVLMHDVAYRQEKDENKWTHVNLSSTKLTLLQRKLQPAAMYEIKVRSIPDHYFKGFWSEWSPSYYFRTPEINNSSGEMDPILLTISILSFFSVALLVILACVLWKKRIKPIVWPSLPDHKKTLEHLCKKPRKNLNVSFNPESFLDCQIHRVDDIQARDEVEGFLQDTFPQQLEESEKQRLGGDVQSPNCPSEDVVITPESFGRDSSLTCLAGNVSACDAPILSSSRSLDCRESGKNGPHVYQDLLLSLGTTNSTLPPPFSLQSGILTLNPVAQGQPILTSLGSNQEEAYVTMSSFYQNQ

B1: TSLP-Arg149Ser (ligand, human, UniProt Q969D9-1 29-159, looked up)
chain: YDFTNCDFEKIKAAYLSTISKDLITYMSGTKSTEFNNTVSCSNRPHCLTEIQSLTFNPTAGCASLAKEMFAMKTKAALAIWCPGYSETQINATQAMKKARKSKVTTNKCLEQVSQLQGLWSRFNRPLLKQQ
B2: TSLP-Arg153Ser (ligand, human, UniProt Q969D9-1 29-159, looked up)
chain: B1 chain with S121R, R125S
B3: TSLP-Arg149Ser/Arg150Ser (ligand, human, UniProt Q969D9-1 29-159, looked up)
chain: B1 chain with R122S
B4: TSLP-Arg150Ser (ligand, human, UniProt Q969D9-1 29-159, looked up)
chain: B1 chain with S121R, R122S
B5: soluble TSLPR ectodomain (domain or fragment, human, UniProt Q9HC73-1 23-221, looked up)
chain: T1 sequence (looked up) with Q25N
B6: TSLP-trap1 (other, human)
chain: QGGAAEGVQIQIIYFNLETVQVTWNASKYSRTNLTFHYRFNGDEAYDQCTNYLLQEGHTSGCLLDAEQRDDILYFSIRNGTHPVFTASRWMVYYLKPSSPKHVRFSWHQDAVTVTCSDLSYGDLLYEVQYRSPFDTEWQSKQENTCNVTIEGLDAEKCYSFWVRVKAMEDVYGPDTYPSDWSEVTCWQRGEIRDACAETPTPPKPKLSKGGSGGSGGSGGSGGSGGSGGSGGSGGSGGSGGSGGSGGSGGSGGSGGSGGSGGSGGSGGSESGYAQNGDLEDAELDDYSFSCYSQLEVNGSQHSLTCAFEDPDVNITNLEFEICGALVEVKCLNFRKLQEIYFIETKKFLLIGKSNICVKVGEKSLTCKKIDLTTIVKPEAPFDLSVVYREGANDFVVTFNTSHLQKKYVKVLMHDVAYRQEKDENKWTHVNLSSTKLTLLQRKLQPAAMYEIKVRSIPDHYFKGFWSEWSPSYYFRTPEINNSSGEMD
notes: signal peptide in the construct; extracellular domain of human TSLPR, NP_071431.2, residues 1-231 (native secretion signal of TSLPR used); flexible (Gly-Gly-Ser)20 linker, written out from the printed formula; extracellular part of human IL-7Rα, NP_002176.2, residues 21-239; also called Human TSLP-trap1; hTSLPtrap1
B7: TSLP-trap2 (other, human)
chain: ESGYAQNGDLEDAELDDYSFSCYSQLEVNGSQHSLTCAFEDPDVNITNLEFEICGALVEVKCLNFRKLQEIYFIETKKFLLIGKSNICVKVGEKSLTCKKIDLTTIVKPEAPFDLSVVYREGANDFVVTFNTSHLQKKYVKVLMHDVAYRQEKDENKWTHVNLSSTKLTLLQRKLQPAAMYEIKVRSIPDHYFKGFWSEWSPSYYFRTPEINNSSGEMDGGSGGSGGSGGSGGSGGSGGSGGSGGSGGSGGSGGSGGSGGSGGSGGSGGSGGSGGSGGSQGGAAEGVQIQIIYFNLETVQVTWNASKYSRTNLTFHYRFNGDEAYDQCTNYLLQEGHTSGCLLDAEQRDDILYFSIRNGTHPVFTASRWMVYYLKPSSPKHVRFSWHQDAVTVTCSDLSYGDLLYEVQYRSPFDTEWQSKQENTCNVTIEGLDAEKCYSFWVRVKAMEDVYGPDTYPSDWSEVTCWQRGEIRDACAETPTPPKPKLSK
B8: TSLP^Δ127–131 (ligand, human, UniProt Q969D9-1 29-159, looked up)
chain: YDFTNCDFEKIKAAYLSTISKDLITYMSGTKSTEFNNTVSCSNRPHCLTEIQSLTFNPTAGCASLAKEMFAMKTKAALAIWCPGYSETQINATQAMKKVTTNKCLEQVSQLQGLWRRFNRPLLKQQ
notes: His tag removed with thrombin; also called non-glycosylated human TSLP lacking a basic cassette; not shown: His6, N-terminal, cleaved
B9: refolded IL-7Rα ectodomain (domain or fragment, human, UniProt P16871-1 21-239, looked up)
chain: ESGYAQNGDLEDAELDDYSFSCYSQLEVNGSQHSLTCAFEDPDVNITNLEFEICGALVEVKCLNFRKLQEIYFIETKKFLLIGKSNICVKVGEKSLTCKKIDLTTIVKPEAPFDLSVVYREGANDFVVTFNTSHLQKKYVKVLMHDVAYRQEKDENKWTHVNLSSTKLTLLQRKLQPAAMYEIKVRSIPDHYFKGFWSEWSPSYYFRTPEINNSSGEMD
notes: extracellular fragment of human IL-7Rα, NP_002176.2, residues 21-239; His tag removed with thrombin; also called IL-7Rα ectodomain (E. coli); not shown: His6, N-terminal, cleaved
B10: soluble IL-7Rα ectodomain (domain or fragment, human, UniProt P16871-1 21-239, looked up)
chain: B9 chain
notes: signal peptide in the construct; extracellular fragment of human IL-7Rα, NP_002176.2, residues 1-239; also called interleukin 7 receptor α-chain
B11: TSLPR-Asp157Ala/Glu159Ala (receptor)
chain: QGGAAEGVQIQIIYFNLETVQVTWNASKYSRTNLTFHYRFNGDEAYDQCTNYLLQEGHTSGCLLDAEQRDDILYFSIRNGTHPVFTASRWMVYYLKPSSPKHVRFSWHQDAVTVTCSDLSYGDLLYEVQYRSPFATAWQSKQENTCNVTIEGLDAEKCYSFWVRVKAMEDVYGPDTYPSDWSEVTCWQRGEIRDACAETPTPPKPKLSKFILISSLAILLMVSLLLLSLWKLWRVKKFLIPSVPDPKSIFPGLFEIHQGNFQEWITDTQNVAHLHKMAGAEQESGPEEPLVVQLAKTEAESPRMLDPQTEEKEASGGSLQLPHQPLQGGDVVTIGGFTFVMNDRSYVAL
B12: TSLPR-Asp176Ala/Glu178Ala/Lys179Ala (receptor)
chain: B11 chain with A135D, A137E, D154A, E156A, K157A
B13: full-length FLAG-tagged human TSLPR (receptor, UniProt Q9HC73-1 23-371, looked up)
chain: B11 chain with A135D, A137E
B14: TSLPR-Phe156Ala/Asp157Ala/Glu159Ala (receptor)
chain: B11 chain with F134A

Tests used:
[1] = target: B13; test: cell-based or functional assay
[2] = target: wild type TSLP (TSLP^R127A/R130S) (human, UniProt Q969D9-1 29-159, R127A | R130S); test: cell-based or functional assay
[3] = target: T3, biotinylated TSLP^R127A/R130S (human, UniProt Q969D9-1 29-159, R127A | R130S, biotin, C-terminal (in vivo biotinylation)); test: BLI; biotinylated TSLP^R127A/R130S on streptavidin biosensors, analyte in solution; PBS with 0.01% BSA and 0.002% Tween 20, 25 °C, Octet RED96; 1:1 model; details: both partners purified
T3 construct: signal peptide in the construct; glycosylated, mammalian-derived; also called thymic stromal lymphopoietin; source: HEK293T, co-transfected with pDisplay-BirA-ER, purified from conditioned medium (IMAC, SEC); not shown: Avi tag (from the vector pHL-AVITAG), C-terminal, kept

TSLPR^N47Q = target: T1, TSLPR^N47Q; test: SEC-MALS; Superdex 200 Increase 10/300 GL, HBS pH 7.4, 0.5 ml/min, 25 °C; glycan-minimized ternary complex; details: both partners purified
[4] = target: T4, binary TSLP^Δ127–131:TSLPR^N47Q complex (human, UniProt Q969D9-1 29-159; Q9HC73-1 23-221, Δ127–131 | N47Q); test: as above; details: both partners purified
T4 construct: as the chain of m8; signal peptide in the construct; extracellular fragment of human TSLPR, NP_071431.2, residues 1-221, N47Q; as the chain of m9; also called TSLP:TSLPR^N47Q complex; not shown: His6, N-terminal, cleaved; copies: 1 + 1

[5] = target: T5, preformed TSLP:TSLPR binary complex (human, UniProt Q969D9-1 29-159; Q9HC73-1 23-221, R127A | R130S, biotin, C-terminal (in vivo biotinylation)); test: BLI; TSLP-loaded biosensors incubated with 320 nM TSLPR, which was also in the assay buffer and all IL-7Rα samples; PBS with 0.01% BSA and 0.002% Tween 20, 25 °C; 1:1 model; details: both partners purified
T5 construct: signal peptide in the construct; as the chain of m1; extracellular fragment of human TSLPR, NP_071431.2, residues 1-221; as the chain of m2; 320 nM TSLPR was kept in the kinetics buffer and in all IL-7Rα samples; also called TSLP:TSLPR complex; not shown: Avi tag (from the vector pHL-AVITAG), C-terminal, kept

[6] = target: T2, full-length HA-tagged human IL-7Rα
[7] = target: T2, full-length HA-tagged human IL-7Rα; test: cell-based or functional assay

For B1, the “EC50 of STAT5 activity (luciferase reporter) induced by TSLP in HEK293T cells expressing WT TSLPR and IL-7Rα” value (“EC50 of STAT5 activity” for short) [1] was 0.0028 nM.

B2 was tested, and the “EC50 of STAT5 activity” value [1] was 0.019 nM.

B3 was tested, and the “EC50 of STAT5 activity” value [1] was 0.1 nM.

With B4 the “EC50 of STAT5 activity” value [1] was 0.0095 nM.

With B5 the “IC50 of inhibition of STAT5 activity induced by 10 pM TSLP by an equimolar mixture of the soluble TSLPR and IL-7Rα ectodomains” value [2] was 49 nM.

In the case of B6, the Kd [3] is reported as 0.12 nM, the koff [3] is reported as 2e-05 s⁻¹ and the “IC50 of inhibition of STAT5 activity induced by 10 pM TSLP in HEK293T cells expressing TSLPR and IL-7Rα” value [2] is reported as 67 pM.

For B7, the “IC50 of inhibition of STAT5 activity induced by 10 pM TSLP in HEK293T cells expressing TSLPR and IL-7Rα” value [2] was 44 pM.

B8 was tested, and the “stoichiometry N” value (TSLPR^N47Q) was 1.

With B9 the “stoichiometry N” value [4] was 1.

For B10, the Kd [5] was 29 nM, the koff [5] was 0.0036 s⁻¹ and the kon [5] was 123000 M⁻¹ s⁻¹.

B11 was tested, and the EC50 of TSLP-induced STAT5 activity in cells expressing mutant TSLPR and IL-7Rα [6] was 0.085 nM.

With B12 the EC50 of TSLP-induced STAT5 activity in cells expressing mutant TSLPR and IL-7Rα [6] was 0.049 nM.

With B13 the “EC50 of TSLP-induced STAT5 activity in cells expressing WT TSLPR and IL-7Rα (control of the site III mutants)” value [7] was 0.011 nM.

B14 was tested, and the EC50 of TSLP-induced STAT5 activity in cells expressing mutant TSLPR and IL-7Rα [6] was 0.4 nM.
